Test results from patent US20120201794A1.

Experiments:
[1] = target: C46 protein (membrane anchored fusion inhibitor derived from the C-terminal heptad repeat of HIV gp41 fused with a human immunoglobulin hinge region and a CD34 transmembrane domain) (HIV gp41 heptad repeat fused to human immunoglobulin hinge and CD34 transmembrane domain); test: flow cytometry, 2F5 staining of Molt4/CCR5 cells transduced with the sh5/C46 lentiviral construct (untransduced background 344.6)
[2] = target: C46 protein (membrane anchored fusion inhibitor derived from the C-terminal heptad repeat of HIV gp41 fused with a human immunoglobulin hinge region and a CD34 transmembrane domain) (HIV gp41 heptad repeat fused to human immunoglobulin hinge and CD34 transmembrane domain); test: flow cytometry, 2F5 staining of Molt4/CCR5 cells transduced with the C46 lentiviral construct (untransduced background 344.6)

Work on 2F5 antibody yielded an MFI [1] of 1170 and an MFI [2] of 1450.
